T1: TAJ (UniProt Q9NS68 30-170, limits assumed)
T1 construct: also called TROY
T1 sequence (looked up): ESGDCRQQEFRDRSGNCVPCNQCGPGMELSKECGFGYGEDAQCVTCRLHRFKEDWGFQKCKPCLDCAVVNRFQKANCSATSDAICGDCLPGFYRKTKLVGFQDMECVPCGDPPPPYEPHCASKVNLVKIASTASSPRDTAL

T2: LINGO-1 (Homo sapiens, UniProt Q96FE5)
T2 sequence (Q96FE5 42-620): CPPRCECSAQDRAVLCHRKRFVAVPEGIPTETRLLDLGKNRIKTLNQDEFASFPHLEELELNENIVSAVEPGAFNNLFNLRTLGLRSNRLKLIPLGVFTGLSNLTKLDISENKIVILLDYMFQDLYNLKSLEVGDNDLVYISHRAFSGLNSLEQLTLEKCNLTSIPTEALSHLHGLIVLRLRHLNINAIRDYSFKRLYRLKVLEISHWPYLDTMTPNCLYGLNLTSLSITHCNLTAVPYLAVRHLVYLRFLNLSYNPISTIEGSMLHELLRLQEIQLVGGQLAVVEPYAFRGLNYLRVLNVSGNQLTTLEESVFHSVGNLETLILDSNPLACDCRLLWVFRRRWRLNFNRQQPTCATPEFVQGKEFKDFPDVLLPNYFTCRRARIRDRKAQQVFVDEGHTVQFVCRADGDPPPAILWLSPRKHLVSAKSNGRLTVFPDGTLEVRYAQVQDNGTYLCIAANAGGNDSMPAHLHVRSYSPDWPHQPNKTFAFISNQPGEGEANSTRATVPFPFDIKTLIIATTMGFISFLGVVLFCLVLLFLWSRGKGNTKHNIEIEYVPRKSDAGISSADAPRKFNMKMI

T3: OMgp (Homo sapiens, UniProt P23515)
T3 sequence (P23515 25-417): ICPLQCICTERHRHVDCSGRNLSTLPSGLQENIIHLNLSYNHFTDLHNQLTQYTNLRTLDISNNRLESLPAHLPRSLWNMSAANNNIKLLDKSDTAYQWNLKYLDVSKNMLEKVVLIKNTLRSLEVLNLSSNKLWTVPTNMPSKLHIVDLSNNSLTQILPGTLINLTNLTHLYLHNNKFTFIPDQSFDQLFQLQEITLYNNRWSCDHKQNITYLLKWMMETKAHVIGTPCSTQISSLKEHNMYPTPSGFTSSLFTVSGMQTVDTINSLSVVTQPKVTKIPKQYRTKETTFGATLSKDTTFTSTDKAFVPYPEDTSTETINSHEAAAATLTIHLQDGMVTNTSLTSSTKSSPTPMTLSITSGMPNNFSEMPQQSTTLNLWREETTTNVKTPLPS

T4: Nogo-66 (Homo sapiens, UniProt Q9NQC3)
T4 construct: Nogo-66 is a 66 amino acid peptide from NogoA
T4 sequence (Q9NQC3 1055-1120 limits assumed): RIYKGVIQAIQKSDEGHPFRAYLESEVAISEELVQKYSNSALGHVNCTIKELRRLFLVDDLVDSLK

T5: p75 (Homo sapiens, UniProt P08138)
T5 sequence (P08138 29-427): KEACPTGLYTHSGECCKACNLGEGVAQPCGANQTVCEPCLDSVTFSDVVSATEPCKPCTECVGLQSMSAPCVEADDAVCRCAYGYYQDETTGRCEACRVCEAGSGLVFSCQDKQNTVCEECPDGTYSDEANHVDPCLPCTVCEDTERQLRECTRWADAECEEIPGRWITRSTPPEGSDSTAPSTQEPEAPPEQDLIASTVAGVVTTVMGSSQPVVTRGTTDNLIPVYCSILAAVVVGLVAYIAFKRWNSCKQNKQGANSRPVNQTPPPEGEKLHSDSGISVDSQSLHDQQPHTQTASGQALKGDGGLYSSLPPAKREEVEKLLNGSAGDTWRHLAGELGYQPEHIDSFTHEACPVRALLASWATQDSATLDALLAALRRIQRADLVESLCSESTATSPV

T6: TAJ (Homo sapiens, UniProt Q9NS68)
T6 sequence (Q9NS68 30-423): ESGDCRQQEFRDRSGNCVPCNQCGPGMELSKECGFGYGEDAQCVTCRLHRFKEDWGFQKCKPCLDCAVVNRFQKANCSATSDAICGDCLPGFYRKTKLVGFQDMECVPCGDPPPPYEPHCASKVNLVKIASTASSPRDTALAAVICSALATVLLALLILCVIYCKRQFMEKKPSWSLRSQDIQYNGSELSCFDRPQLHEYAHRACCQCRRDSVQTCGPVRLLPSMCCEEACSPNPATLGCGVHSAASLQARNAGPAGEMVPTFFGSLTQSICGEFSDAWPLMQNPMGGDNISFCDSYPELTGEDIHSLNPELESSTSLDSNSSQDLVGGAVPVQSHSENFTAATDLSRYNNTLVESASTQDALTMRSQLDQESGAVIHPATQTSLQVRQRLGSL


Key:
[1] = molecular target: T1, TAJ; test: ELISA; reference is NgR1(310)
[2] = molecular target: T2, LINGO-1; test: ELISA binding of FL-NgR1 to LINGO-1; settings: compared with truncated versions containing the LRR region alone
Description: (§1) On size exclusion chromatography (SEC), the protein eluted as a single peak with a mass of about 80 kDa (FIG. 2B). […] See, for e.g., Shao, et al., (2005), Neuron 45, 353-359. A 10-fold higher affinity for Taj was seen using FL-NgR1 compared with the truncated versiox NgR1 (310) containing just the LRR region as described in Id.

[3] = molecular target: T3, OMgp; test: ELISA binding of FL-NgR1 to OMgp; settings: compared with truncated versions containing the LRR region alone
[4] = molecular target: T4, Nogo-66; test: ELISA binding of FL-NgR1 to Nogo-66; settings: compared with truncated versions containing the LRR region alone
[5] = molecular target: T5, p75; test: ELISA binding of FL-NgR1 to p75; settings: compared with truncated versions containing the LRR region alone
[6] = molecular target: T6, TAJ; test: ELISA binding of FL-NgR1 to TAJ; settings: compared with truncated versions containing the LRR region alone
Description: as §1

[7] = tested on: AP-OMgp; test: Competition ELISA, anti-NgR1 antibody blocking binding of AP-OMgp to FL-NgR1; settings: anti-NgR1 antibody used to block binding; FIG. 2C
Description: as §1

[8] = tested on: AP-Lingo-1; test: Competition ELISA, anti-NgR1 antibody blocking binding of AP-Lingo-1 to FL-NgR1; settings: anti-NgR1 antibody used to block binding; FIG. 2C
Description: as §1

Molecule | fold higher affinity compared with NgR1 (310) [1] | binding in an ELISA assay to LINGO-1 [2] | binding in an ELISA assay to OMgp [3] | binding in an ELISA assay to Nogo-66 [4] | binding in an ELISA assay to p75 [5] | binding in an ELISA assay to TAJ [6] | binding of AP-OMgp in competition ELISA [7] | binding of AP-Lingo-1 in competition ELISA [8]
Human NgR1, excluding the GPI domain (FL-NgR1, residues 27-438) with a flag tag at its N-terminus (receptor, Soluble protein expressed in CHO cells; also called human FL-NgR1; NgRI; not shown: N-terminal flag tag) CPGACVCYNEPKVTTSCPQQGLQAVPVGIPAASQRIFLHGNRISHVPAASFRACRNLTILWLHSNVLARIDAAAFTGLALLEQLDLSDNAQLRSVDPATFHGLGRLHTLHLDRCGLQELGPGLFRGLAALQYLYLQDNALQALPDDTFRDLGNLTHLFLHGNRISSVPERAFRGLHSLDRLLLHQNRVAHVHPHAFRDLGRLMTLYLFANNLSALPTEALAPLRALQYLRLNDNPWVCDCRARPLWAWLQKFRGSSSEVPCSLPQRLAGRDLKRLAANDLQGCAVATGPYHPIWTGRATDEEPLGLPKCCQPDAADKASVLEPGRPASAGNALKGRVPPGDSPPGNGSGPRHINDSPFGTLPGSAEPPLTAVRPEGSEPPGFPTSGPRRRPGCSRKNRTRSHCRLGQAGSGG | 10 fold | – | – | – | – | – | – | –
FL-NgR1: Human NgR1 excluding the GPI domain, residues 27-438 (SEQ ID NO:22), N-terminal flag tag, expressed in CHO cells (protein, N-terminal FLAG tag; Human NgR-1) CPGACVCYNEPKVTTSCPQQGLQAVPVGIPAASQRIFLHGNRISHVPAASFRACRNLTILWLHSNVLARIDAAAFTGLALLEQLDLSDNAQLRSVDPATFHGLGRLHTLHLDRCGLQELGPGLFRGLAALQYLYLQDNALQALPDDTFRDLGNLTHLFLHGNRISSVPERAFRGLHSLDRLLLHQNRVAHVHPHAFRDLGRLMTLYLFANNLSALPTEALAPLRALQYLRLNDNPWVCDCRARPLWAWLQKFRGSSSEVPCSLPQRLAGRDLKRLAANDLQGCAVATGPYHPIWTGRATDEEPLGLPKCCQPDAADKASVLEPGRPASAGNALKGRVPPGDSPPGNGSGPRHINDSPFGTLPGSAEPPLTAVRPEGSEPPGFPTSGPRRRPGCSRKNRTRSHCRLGQAGSGG | – | as well as or better than truncated versions containing the LRR region alone | as well as or better than truncated versions containing the LRR region alone | as well as or better than truncated versions containing the LRR region alone | as well as or better than truncated versions containing the LRR region alone | as well as or better than truncated versions containing the LRR region alone | verified the activities of FL-NgR1 | verified the activities of FL-NgR1

Source: patent US20090062199A1, “Nogo Receptor Polypeptides and Polypeptide Fragments and Uses Thereof” (Biogen Idec MA Inc., priority 2005, published 2009)
